Molecular target: human hCTLA4-RFP protein on 293 cells (human) (UniProt P16410)
Assay: flow cytometry of cell conjugates; 293-hCTLA4-RFP cells with 100 nM antibody, then five times as many 293-B7-1-GFP cells (B7-1 is the ligand tested for blocking); lower right quadrant (RFP+GFP-) 6.13

human hCTLA4-RFP protein on 293 cells (human), sequence (P16410 36-223): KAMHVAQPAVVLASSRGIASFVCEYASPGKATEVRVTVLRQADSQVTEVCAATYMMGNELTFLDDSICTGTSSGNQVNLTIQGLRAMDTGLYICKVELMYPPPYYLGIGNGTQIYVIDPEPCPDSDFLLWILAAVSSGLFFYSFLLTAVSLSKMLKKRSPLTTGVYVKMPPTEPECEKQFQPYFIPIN

% RFP+GFP+ events (upper right quadrant): 26.5%
Substance: hIgG1 (antibody)
